Reference: PMC3762817, “Therapeutic Targeting of Tumor Growth and Angiogenesis with a Novel Anti-S100A4 Monoclonal Antibody” (PLoS ONE, 2013)

Molecular target: T1, human recombinant RAGE-Fc Chimera (human, UniProt Q15109 23-342)
T1 construct: RAGE (receptor for advanced glycation end products), human; also called RAGE receptor; immobilized RAGE; source: bought: R&D Systems
Test: SPR; Biacore T100; about 1,000 RU of RAGE-Fc immobilised on a CM5 chip by amine coupling; S100A4 0.625-5 µM passed over at 15 µL/min, 60 s contact time; regeneration with 50 mM NaOH
Details: both partners purified

T1 sequence (Q15109 23-342, change not shown): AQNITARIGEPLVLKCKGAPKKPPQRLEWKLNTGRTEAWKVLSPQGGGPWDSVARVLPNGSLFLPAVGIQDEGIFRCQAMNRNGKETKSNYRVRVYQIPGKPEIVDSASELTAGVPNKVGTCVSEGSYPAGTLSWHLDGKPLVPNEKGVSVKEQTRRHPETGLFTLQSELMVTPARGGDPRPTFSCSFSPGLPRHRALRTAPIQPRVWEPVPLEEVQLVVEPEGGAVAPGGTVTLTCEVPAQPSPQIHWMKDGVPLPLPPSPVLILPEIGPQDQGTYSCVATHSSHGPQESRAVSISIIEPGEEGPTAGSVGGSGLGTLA

B1: human recombinant S100A4 (natural protein)
chain: not shown
notes: S100A4, human; The His tag is inferred, and its removal is not mentioned; also called S100A4 fusion protein
**Q.** Does B1 bind?
**A.** binds
